Laboratory results from the supplement of paper PMC11246515.
± gives the standard deviation of the averaged measurements.

Test: total protein half-life in vivo (active degradation + dilution); higher = more stable protein
[1] = E. coli NCM3722 delta-clpP delta-lon delta-hslV, growth: N-lim chemostat, doubling time 6 h
[2] = E. coli NCM3722 delta-clpP, growth: N-lim chemostat, doubling time 6 h
[3] = E. coli NCM3722 delta-hslV, growth: N-lim chemostat, doubling time 6 h
[4] = E. coli NCM3722 delta-lon, growth: N-lim chemostat, doubling time 6 h
[5] = E. coli NCM3722 delta-smpB, growth: N-lim chemostat, doubling time 6 h
[6] = wild type E. coli NCM3722, growth: C-lim chemostat, doubling time 3 h
[7] = wild type E. coli NCM3722, growth: C-lim chemostat, doubling time 6 h
[8] = wild type E. coli NCM3722, growth: C-lim chemostat, doubling time 12 h
[9] = wild type E. coli NCM3722, growth: N-lim chemostat, doubling time 6 h
[10] = wild type E. coli NCM3722, growth: P-lim chemostat, doubling time 6 h
[11] = wild type E. coli NCM3722, growth: P-lim chemostat, doubling time 12 h

Sequence	total protein half-life in vivo [1]	total protein half-life in vivo [2]	total protein half-life in vivo [3]	total protein half-life in vivo [4]	total protein half-life in vivo [5]	total protein half-life in vivo [6]	total protein half-life in vivo [7]	total protein half-life in vivo [8]	total protein half-life in vivo [9]	total protein half-life in vivo (wild type E. coli NCM3722, growth: N-lim chemostat, doubling time 12 h)	total protein half-life in vivo [10]	total protein half-life in vivo [11]
MSSFQFEQIGVIRSPYKEKFAVPRQPGLVKSANGELHLIAPYNQADAVRGLEAFSHLWILFVFHQTMEGGWRPTVRPPRLGGNARMGVFATRSTFRPNPIGMSLVELKEVVCHKDSVILKLGSLDLVDGTPVVDIKPYLPFAESLPDASASYAQSAPAAEMAVSFTAEVEKQLLTLEKRYPQLTLFIREVLAQDPRPAYRKGEETGKTYAVWLHDFNVRWRVTDAGFEVFALEPR	5 ± 0.19 h	4.77 ± 0.35 h	4.77 ± 0.049 h	5.29 ± 0.31 h	5.06 ± 0.3 h	2.89 ± 0.41 h	5.88 ± 0.54 h	9.48 ± 0.38 h	4.98 ± 0.3 h	10.1 ± 2.3 h	6.19 ± 0.56 h	13.5 ± 1.7 h
MSLHSPGKAFRAALTKENPLQIVGTINANHALLAQRAGYQAIYLSGGGVAAGSLGLPDLGISTLDDVLTDIRRITDVCSLPLLVDADIGFGSSAFNVARTVKSMIKAGAAGLHIEDQVGAKRCGHRPNKAIVSKEEMVDRIRAAVDAKTDPDFVIMARTDALAVEGLDAAIERAQAYVEAGAEMLFPEAITELAMYRQFADAVQVPILANITEFGATPLFTTDELRSAHVAMALYPLSAFRAMNRAAEHVYNVLRQEGTQKSVIDTMQTRNELYESINYYQYEEKLDNLFARSQVK	3.59 ± 0.66 h	–	–	–	–	–	4.13 ± 0.31 h	5.82 ± 0.58 h	4.7 h	–	–	–
MIKVYGVPGWGSTISELMLTLADIPYQFVDVSGFDHEGASRELLKTLNPLCQVPTLALENDEIMTETAAIALMVLDRRPDLAPPVGRAERQLFQRLLVWLVANVYPTFTFADYPERWAPDAPEQLKKNVIEYRKSLYIWLNSQLTAEPYAFGEQLTLVDCYLCTMRTWGPGHEWFQDNATNISAIADAVCQLPKLQEVLKRNEII	5.47 ± 0.78 h	4.57 ± 0.21 h	4.93 ± 0.096 h	4.6 h	4.48 ± 0.6 h	–	4.99 h	–	4.76 h	–	6.17 h	12.2 h
MMSKINQTDIDRLIELVGGRGNIATVSHCITRLRFVLNQPANARPKEIEQLPMVKGCFTNAGQFQVVIGTNVGDYYQALIASTGQAQVDKEQVKKAARHNMKWHEQLISHFAVIFFPLLPALISGGLILGFRNVIGDLPMSNGQTLAQMYPSLQTIYDFLWLIGEAIFFYLPVGICWSAVKKMGGTPILGIVLGVTLVSPQLMNAYLLGQQLPEVWDFGMFSIAKVGYQAQVIPALLAGLALGVIETRLKRIVPDYLYLVVVPVCSLILAVFLAHALIGPFGRMIGDGVAFAVRHLMTGSFAPIGAALFGFLYAPLVITGVHQTTLAIDLQMIQSMGGTPVWPLIALSNIAQGSAVIGIIISSRKHNEREISVPAAISAWLGVTEPAMYGINLKYRFPMLCAMIGSGLAGLLCGLNGVMANGIGVGGLPGILSIQPSYWQVFALAMAIAIIIPIVLTSFIYQRKYRLGTLDIV	–	–	–	–	2.51 h	2.85 ± 0.2 h	4.23 ± 0.33 h	6.59 ± 0.51 h	–	–	4.13 h	6.92 h
